Measured values reported in patent US20070202079A1, “Therapeutic compositions and methods useful in modulating protein tyrosine phosphatases” (priority 2006, published 2007).
Positions count from the first letter of the chain named. Blank lines part the entries; values can stand above or below the molecule they belong to.

Columns and labels:
SHP-1 = target: T1, SHP-1 (Mus musculus, UniProt P29351); test: in vitro PTPase assay, GST/SHP-1; type: biochemical
T1 construct: made in house
Method: In vitro PTPase activities were measured using the commercial protein tyrosine phosphatase assay kit (Upstate Biotechnology, Inc. (“UBI”)) following established procedure known to one of skill in the art. […] Briefly, 0.01 μg of GST/PTPase fusion proteins was incubated in 50 μl of Tris buffer (10 mM Tris, pH 7.4) containing different concentrations of inhibitors or chemicals (0-1,000 μg/ml) at 22° C. for 10 minutes, followed by addition of 0.2 mM of the phosphotyrosine peptide and incubation at 22° […] 100 μl of Malachite Green solution was added and incubated for 5 minutes, and the absorbance at 660 nm was measured after 5 minutes.
To assess the reversibility of inhibition of SHP-1 by PTPase inhibitors, GST/SHP-1 fusion protein bound on glutathione beads were pre-incubated in cold Tris buffer or Tris buffer containing the PTPase inhibitors at 4° C. for 30 minutes. The beads were then either subjected to in vitro PTPase assays or washed 3 times in Tris buffer then subjected to in vitro PTPase assays.
Briefly, individual PTPases (0.1 μg/reaction) in 50 μL of PTPase buffer (50 mM Tris, pH 7.4) were incubated at 22° C. for 10 minutes or as indicated in the absence or presence of inhibitory compounds. Substrates (0.2 mM phosphotyrosine peptide) were then added and allowed to react at 22° C. for 18 hrs. PTPase activity of individual reactions was measured by adding 100 μL of malachite green solution (UBI) and then quantifying the amounts of free phosphate cleaved by the PTPase from the peptide substrate by spectrometry (OD660 nm). […] Relative PTPase activities were calculated based on the formula: (PTPase activity in the presence of an inhibitory compound/PTPase activity in the absence of the compound)× 100%. To assess the reversibility of PTPase inhibition, GST fusion proteins of the PTPases bound on glutathione beads (Pharmacia) were pre-incubated with cold Tris buffer (50 mM Tris, pH 7.0) or Tris buffer containing the inhibitor at 4° C. for 30 minutes. The beads were then washed three times in cold Tris buffer or not washed prior to subjecting to in vitro PTPase assays.

PRL-3 = target: T2, PRL-3 (Homo sapiens, UniProt O75365); test: in vitro PTPase assay, recombinant PRL-3; type: biochemical; details: DiFMUP substrate
T2 construct: cDNAs of human PRL-1, PRL-2 and PRL-3 coding region were derived by RT-PCR; made in house; host or cells: DH5a bacteria (E. coli)
T2 sequence (O75365 whole entry): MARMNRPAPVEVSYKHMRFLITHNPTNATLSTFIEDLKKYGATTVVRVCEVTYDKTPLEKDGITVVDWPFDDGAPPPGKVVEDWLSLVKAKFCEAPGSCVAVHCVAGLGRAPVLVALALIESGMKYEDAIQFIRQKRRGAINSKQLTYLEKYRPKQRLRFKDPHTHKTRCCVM
Excerpt: Sodium stibogluconate, suramin, sodium orthovanadate and GST fusion protein of SHP-1 have been described previously (Pathak et al., J. Immunol. 167, 3391 (2001)). Meglumine antimonate was obtained from Aventis. cDNAs of human PRL-1, PRL-2 and PRL-3 coding region were derived by RT-PCR from H9 cells (Safai, et al., Lancet 1, 1438 (1984)) and inserted in frame into the pGEX vector. cDNA of PRL-1R86 was generated by recombinant DNA technique using PRL-1 cDNA as template following established procedures (Jiao, et al., Mol. Cell. Biol. 16, 6985 (1996)). GST fusion proteins of the PRL phosphatases were prepared from DH5a bacteria transformed with the pGEX fusion protein constructs as described previously (Yi, et al., Mol. Cell. Biol. 12, 836 (1992)). cDNAs encoding the PRLs tagged at the N-termini with the Flag epitope (Castrucci, et al., J. Virol. 66, 4647 (1992)) were generated via recombinant DNA technique, sequenced to confirm their identities and cloned into the pBabepuro vector (Yang, et al., Blood 91, 3746 (1998)). Anti-Flag monoclonal antibody (M2, Sigma) was purchased from a commercial source. A synthetic phosphotyrosine peptide (Arg-Arg-Leu-Ile-Glu-Asp-Ala-Gle-Tyr-Al- -a-Ala-Arg-Gly (SEQ ID NO: 3), wherein the tyrosine is phosphorylated; UBI) and DiFMUP (6, 8-difluoro-4-methylumbelliferyl phosphate, Molecular Probes) were purchased as substrates for PTPase assays.
In vitro PTPase assays were used to determine the effects of compounds on recombinant PTPases, following established procedures using a synthetic phosphotyrosine peptide or DiFMUP as the substrate (Pathak et al., J. Immunol. 167, 3391 (2001)). Briefly, individual PTPases (0.1 μg/reaction) in 50 μL of PTPase buffer (50 mM Tris, pH 7.4) were incubated at 22° C. for 10 minutes or as indicated in the absence or presence of inhibitory compounds. Substrates (0.2 mM phosphotyrosine peptide) were then added and allowed to react at 22° C. for 18 hrs. PTPase activity of individual reactions was measured by adding 100 μL of malachite green solution (UBI) and then quantifying the amounts of free phosphate cleaved by the PTPase from the peptide substrate by spectrometry (OD660 nm). PTPase assays using DiFMUP as a substrate were conducted following a previously described procedure (Matter, et al., Biochem. Biophys. Res. Comm. 283, 1061 (2001)). Relative PTPase activities were calculated based on the formula: (PTPase activity in the presence of an inhibitory compound/PTPase activity in the absence of the compound)× 100%. To assess the reversibility of PTPase inhibition, GST fusion proteins of the PTPases bound on glutathione beads (Pharmacia) were pre-incubated with cold Tris buffer (50 mM Tris, pH 7.0) or Tris buffer containing the inhibitor at 4° C. for 30 minutes. The beads were then washed three times in cold Tris buffer or not washed prior to subjecting to in vitro PTPase assays.

MKP1 = target: T3, MKP1 (Homo sapiens, UniProt P28562); test: in vitro PTPase assay, GST/MKP1; type: biochemical; details: levamisole, pentamidine, ketoconazole
T3 construct: a pGEX construct containing the coding region of MKP1 cDNA derived by RT-PCR; made in house; host or cells: DH5a bacteria (E. coli)
T3 sequence (P28562 1-367): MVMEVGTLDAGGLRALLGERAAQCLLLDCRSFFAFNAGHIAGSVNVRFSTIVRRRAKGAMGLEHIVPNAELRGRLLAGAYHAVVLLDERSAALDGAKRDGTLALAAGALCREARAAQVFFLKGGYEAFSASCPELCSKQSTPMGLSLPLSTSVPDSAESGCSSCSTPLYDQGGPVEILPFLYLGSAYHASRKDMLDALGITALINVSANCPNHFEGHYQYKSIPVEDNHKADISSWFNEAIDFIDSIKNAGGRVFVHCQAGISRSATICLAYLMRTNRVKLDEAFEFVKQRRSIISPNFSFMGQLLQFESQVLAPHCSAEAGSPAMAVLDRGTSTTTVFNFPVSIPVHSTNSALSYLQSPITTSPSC
Method: In vitro PTPase activities were measured using the commercial protein tyrosine phosphatase assay kit (Upstate Biotechnology, Inc. (“UBI”)) following established procedure known to one of skill in the art. This assay measures the in vitro dephosphorylation of a synthetic phosphotyrosine peptide of the sequence Arg-Arg-Leu-Ile-Glu-Asp-Ala-Gle-T- -yr-Ala-Ala-Arg-Gly, wherein the tyrosine is phosphorylated (SEQ ID NO: 3). Briefly, 0.01 μg of GST/PTPase fusion proteins was incubated in 50 μl of Tris buffer (10 mM Tris, pH 7.4) containing different concentrations of inhibitors or chemicals (0-1,000 μg/ml) at 22° C. for 10 minutes, followed by addition of 0.2 mM of the phosphotyrosine peptide and incubation at 22° C. for 18 hours. 100 μl of Malachite Green solution was added and incubated for 5 minutes, and the absorbance at 660 nm was measured after 5 minutes.
(§1) In vitro PTPase assays were used to determine the effects of levamisole (Sigma), pentamidine (American Pharmaceutical Partners, Inc.), and ketoconazole (Sigma) on recombinant PTPases, following established procedures (Pathak et al., J. Immunol. 167, 3391 (2001); Pathak et al., Leukemia 16, 2285 (2002), Yi et al., J. Immunol. 169, 5978 (2002)) using a synthetic phosphotyrosine peptide or DiFMUP as the substrate as detailed above in section I.A.2.

GSTm8 = test: in vitro PTPase assay, GSTm8; type: biochemical; details: 3-4 μg/ml or 10-100 μg/ml
Excerpt: as §1

[1] = test system: T4, Synthetic phosphotyrosine peptide Arg-Arg-Leu-Ile-Glu-Asp-Ala-Gle-Tyr-Ala-Ala-Arg-Gly (SEQ ID NO: 3), tyrosine phosphorylated
T4 sequence: RRLIEDAEYAARG

[2] = target: T5, Synthetic phosphotyrosine peptide Arg-Arg-Leu-Ile-Glu-Asp-Ala-Gle-Tyr-Ala-Ala-Arg-Gly (SEQ ID NO: 3), tyrosine phosphorylated (not fully specified)
T5 chain: RRLIEDAEYAARG

inhibition of SHP-1 compared with sodium stibogluconate (SHP-1; comparable conditions): less effective | inhibition of PRL-3 compared with sodium stibogluconate (PRL-3): less effective
Molecule: Cc1ccc(C(=O)Nc2ccc(S(=O)(=O)O)c3cc(S(=O)(=O)O)cc(S(=O)(=O)O)c23)cc1NC(=O)c1cccc(NC(=O)Nc2cccc(C(=O)Nc3cc(C(=O)Nc4ccc(S(=O)(=O)O)c5cc(S(=O)(=O)O)cc(S(=O)(=O)O)c45)ccc3C)c2)c1 [Suramin]
inhibition of GST/SHP-1 after washing (reversibility) (SHP-1; pre-incubated 30 min at 4 °C, beads washed 3 times): almost completely removed by the washing process

inhibitory activity against SHP-1 (SHP-1; 3-4 μg/ml or 10-100 μg/ml): no obvious inhibitory activity | inhibition of MKP1 (MKP1): substantial inhibition | inhibitory activity against GSTm8 (GSTm8): no obvious inhibitory activity
Molecule: c1ccc([C@H]2CN3CCSC3=N2)cc1 [levamisole]

Molecule: [Na+].[Na+].[Na+].[O]=[V]([O-])([O-])[O-] [sodium orthovanadate]
inhibition of PRL-3 compared with sodium stibogluconate (PRL-3): less effective

Molecule: GST fusion protein of SHP-1
PTPase activities against the peptide substrate (660 nm absorbance above background) [1]: 660 nm absorbance approximately 0.6 above background (0.03)

Molecule: GST fusion protein of SHP-2
PTPase activities against the peptide substrate (660 nm absorbance above background) [1]: 660 nm absorbance approximately 0.6 above background (0.03)

Molecule: GST fusion protein of mitogen-activated protein kinase phosphatase 1 (MKP1)
PTPase activities against the peptide substrate (660 nm absorbance above background) [1]: 660 nm absorbance approximately 0.6 above background (0.03)

Molecule: GST fusion protein of protein tyrosine phosphatase 1B (PTP1B)
PTPase activities against the peptide substrate (660 nm absorbance above background) [1]: 660 nm absorbance approximately 0.6 above background (0.03)

B1: GST fusion protein of PRL-1R86 (recombinant PRL-1 protein containing R86) (protein)
chain: MARMNRPAPVEVTYKNMRFLITHNPTNATLNKFIEELKKYGVTTIVRVCEATYDTTLVEKEGIHVLDWPFDDGAPPSNQIVDDWLRLVKIKFREEPGCCIAVHCVAGLGRAPVLVALALIEGGMKYEDAVQFIRQKRRGAFNSKQLLYLEKYRPKMRLRFKDSNGHRNNCCIQ
in vitro PTPase activity [2]: showed in vitro PTPase activity similar to that of wild type PRL-1

B2: Flag-PRL-1R86 (Flag-tagged PRL-1 R86 mutant) (protein)
chain: B1 chain
phosphatase activities of anti-Flag immunocomplexes [2]: showed phosphatase activities well above the background activity of the vector control cells

B3: GST fusion protein of PRL-1 (recombinant wild type PRL-1) (protein)
chain: B1 chain with R86S
in vitro PTPase activity [2]: showed in vitro PTPase activity similar to that of wild type PRL-1

B4: Flag-PRL-1 (human PRL-1 tagged at the N-terminus with the Flag epitope) (protein)
chain: B1 chain with R86S
PTPase activity of anti-Flag immunocomplexes [2]: a markedly higher PTPase activity (about 23 folds) over that of control transfectants | phosphatase activities of anti-Flag immunocomplexes [2]: showed phosphatase activities well above the background activity of the vector control cells
